The results in this text go back to doi:10.1101/2024.05.21.594841.

This experiment addresses these 5 target proteins. Put plainly: split reporter.

“And” between values parts separate entries of the source, which are not always exact repeats. Equal values may be shown once.

B1: Lhs1p (natural protein)
chain: AVLGVDYGQQNIKAIVVSPQAPLELVLTPEAKRKEISGLSIKRLPGYGKDDPNGIERIYGSAVGSLATRFPQNTLLHLKPLLGKSLEDETTVTLYSKQHPGLEMVSTNRSTIAFLVDNVEYPLEELVAMNVQEIANRANSLLKDRDARTEDFVNKMSFTIPDFFDQHQRKALLDASSITTGIEETYLVSEGMSVAVNFVLKQRQFPPGEQQHYIVYDMGSGSIKASMFSILQPEDTTQPVTIEFEGYGYNPHLGGAKFTMDIGSLIENKFLETHPAIRTDELHANPKALAKINQAAEKAKLILSANSEASINIESLINDIDFRTSITRQEFEEFIADSLLDIVKPINDAVTKQFGGYGTNLPEINGVILAGGSSRIPIVQDQLIKLVSEEKVLRNVNADESAVNGVVMRGIKLSNSFKTKPLNVVDRSVNTYSFKLSNESELYDVFTRGSAYPNKTSILTNTTDSIPNNFTIDLFENGKLFETITVNSGAIKNSYSSDKCSSGVAYNITFDLSSDRLFSIQEVNCICQSENDIGNSKQIKNKGSRLAFTSEDVEIKRLSPSERSRLHEHIKLLDKQDKERFQFQENLNVLESNLYDARNLLMDDEVMQNGPKSQVEELSEMVKVYLDWLEDASFDTDPEDIVSRIREIGILKKKIELYMDSAKEPLNSQQFKGMLEEGHKLLQAIETHKNTVEEFLSQFETEFADTIDNVREEFKKIKQPAYVSKALSTWEETLTSFKNSISEIEKFLAKNLFGEDLREHLFEIKLQFDMYRTKLEEKLRLIKSGDESRLNEIKKLHLRNFRLQKRKEEKLKRKLEQEKSRNNNETESTVINSADDKTTIVNDKTTESNPSSEEDILHDEL
Consider B1, for which the normalized interacting score is 83% and 93%.
